According to patent US20230192902A1, “ABCG2 EFFLUX PUMP-CANCER ANTIGEN MULTI-SPECIFIC ANTIBODIES AND COMPOSITIONS, REAGENTS, KITS AND METHODS RELATED THERETO” (Kenjockety Biotechnology, Inc., priority 2020, published 2023):
Changes are numbered by the printed parent chain.

B1: 5D3: anti-ABCG2 antibody 5D3; VH SEQ ID NO:5, VL SEQ ID NO:1; tested with human IgG1 constant regions (antibody, V domains shown)
VH: QVQLQESGPGLVKPSQSLSLTCTVTGFSITSDYAWNWIRQFPGKKLEWMGYINFDGGTTYNPSLRGRISITRDTSKNQFFLQLRSVTPEDTATYYCATFYGAKGTLDYWGQGTSVTVSS
VL: DIVLTQSPSSFSVSLGDRVTISCKASGYILNRLAWYQQKPGNAPRLLISGATSLETGFPSRFSGTGSGKDYTLSISSLQTEDVGTYYCQQYWSTPWTFGGGTKLEIR
modifications: human IgG1 constant regions
notes: anti-ABCG2 antibody 5D3; tested with human IgG1 constant regions
B2: 5D3DDKT14KK5D3: bispecific ABCG2/CD47 antibody: HC and LC from anti-ABCG2 antibody 5D3 and a HC from anti-CD47 antibody 5F9; DD/KK charged pair substitutions (antibody, V domains shown)
VH 1: B1 VH
VH 2: QVQLVQSGAEVKKPGASVKVSCKASGYTFTNYNMHWVRQAPGQRLEWMGTIYPGNDDTSYNQKFKDRVTITADTSASTAYMELSSLRSEDTAVYYCARGGYRAMDYWGQGTLVTVSS
VL: B1 VL
B3: 5D3hVHv1DDKT14KK5D3hVLv1: bispecific ABCG2/CD47 antibody: humanized 5D3 VH version 1 (DD), 5F9 HC (KK), humanized 5D3 VL version 1 common light chain (antibody, V domains shown)
VH 1: EVQLQESGPGLVKPSETLSLTCTVSGFSITSDYAWNWIRQPPGKGLEWMGYINFDGGTTYNPSLRGRITISRDTSKNQFSLKLSSVTAADTAVYYCATFYGAKGTLDYWGQGTLVTVSS
VH 2: B2 VH 2
VL: DIQLTQSPSSLSASVGDRVTITCKASGYILNRLAWYQQKPGKAPKLLISGATSLETGFPSRFSGSGSGKDYTLTISSLQPEDFATYYCQQYWSTPWTFGGGTKLEIK
B4: 5D3hVHv2DDKT14KK5D3hVLv1: bispecific ABCG2/CD47 antibody: humanized 5D3 VH version 2 (DD), 5F9 HC (KK), humanized 5D3 VL version 1 common light chain (antibody, V domains shown)
VH 1: B3 VH 1 with M49I, I68V
VH 2: B2 VH 2
VL: B3 VL

System: 293T_ABCG2_OX cells (293T cells stably transfected to express ABCG2)
Assay: Topotecan cytotoxicity assay in the presence of antibodies (CellTiter-Glo)
Assay type: cell-based, human
Details: FIG. 1; 293T cells overexpressing ABCG2; 72-96 hr; IC50 values only in the figure
Method: Cytotoxicity Assays. The effect of antibodies on topotecan cytotoxicity was evaluated on 293T_ABCG2_OX cells, 293T cells stably transfected to express ABCG2. Cells were plated in 0.05 mL of Assay Media (DMEM +10% FBS) at 5000 cells/well in white, flat bottom 96-well tissue culture plates. Topotecan was prepared at 2X final assay concentration by serial dilution from 200 uM in assay media containing test antibodies or control antibodies at 100 ug/mL (2X final concentration), or Fumitremorgin C (FTC), a small molecule ABCG2 inhibitor at (2X final concentration). An equivalent volume (0.05 mL) of the topotecan/antibody mixture was added to the 293T_ABCG2_OX cells in 96-well plates. The plates were then incubated at 37° C., in 5% CO2. After about 72-96 hr plates were equilibrated to room temperature and cell viability assessed using Promega® CellTiter-Glo® Luminescent Cell Viability Assay according to the manufacturer’s recommended protocol. Luminescence was measured on a Molecular Devices® FlexStation® 3 Multi-Mode Microplate Reader and data analyzed using GraphPad Prism 8.0 software. Half maximal inhibitory concentration (IC50) is the concentration of drug (topotecan or other chemotherapy cytotoxic agent) where the response (cell growth) is reduced by 50%.

Molecule | susceptibility of cells to topotecan in the presence of the antibody
B1 | increased susceptibility to topotecan
B2 | increased susceptibility to topotecan
B3 | increased susceptibility to topotecan
B4 | increased susceptibility to topotecan
